Columns and labels:
[1] = Release of hydrolyzed gold(III) porphyrin moiety in aqueous buffer solutions (dialysis, ICP-MS); type: physicochemical; conditions: for hydrolyzed product found: sodium acetate buffer pH 4, 37 °C
Protocol: The rate of the release of the gold(III) porphyrin moiety from the conjugates in aqueous buffer solutions at different pH values was determined according to the reported methodology.[24],[26],[27] Nanostructures of 1 and 2 were dissolved in PBS or sodium acetate buffer (pH 4.0) and then dialyzed against a large volume of PBS or sodium acetate buffer solution in the dark at 37 °C using a 1000 Da cut-off dialysis membrane (details are included in the ESI ^†). The quantity of the hydrolyzed gold(III) porphyrin moiety at different time points was determined by inductively coupled plasma mass spectrometry (ICP-MS; Fig. 2a). In PBS, 31% and 60% of 1 were hydrolyzed at 6 and 24 h, respectively, while only 2% and 3% of hydrolyzed product of 2 were found at 5 and 24 h, and more than 89% of 2 remained unhydrolyzed at 96 h. […] Faster release was also found upon incubation of 2 in pH 4 buffer solution compared to that in PBS, but the amount was still much smaller than that found in the study of 1. As the only difference between 1 and 2 is the chemical structure of the linkage for PEG conjugation, the faster release of the gold(III) porphyrin moiety from 1 in PBS than that from 2 should be attributed to the higher tendency of the ester bond in 1 to undergo hydrolytic cleavage than the amide bond in 2.[52] […]
Study on the release of hydrolyzed product from 1 and 2 in aqueous buffer solutions by ICP-MS. The nanostructures of gold(III) complex was dissolved in PBS solution (pH 7.4; 1 mg/mL) or sodium acetate buffer solution (pH 4.0; 1 mg/mL) and was dialyzed against 1 L of the buffer solution at 37 °C using semipermeable minidialysis tubes (molecular weight cut-off = 1,000 Da; GE Healthcare). At a predetermined time, an aliquot of solution was removed and dissolved in HNO3/HCl solution mixture (9:1, v/v; volume of aliquot: volume of acid mixture = 1:3). The solution mixture was heated at 65 °C with shaking overnight, and the gold content was determined by ICP-MS from three independent aliquots. […]

HCT116 cells [2] = test: Time-dependent induction of apoptosis, Caspase-3/7 Green ReadyProbes fluorescence microscopy; type: cell-based, human; conditions: HCT116, 2 μM, Caspase-3/7 Green Reagent
Protocol: B from 20.1 to 25 min and returned to initial conditions and equilibrated for 3 minutes.
The flow rate was 0.4 mL/min and the injection volume was 2 µL. The UPLC-QTOF-MS chromatograms of 1, 3, 4 and solvent control in acetonitrile were also recorded for the interpretation of UPLC-QTOF-MS chromatograms of the cell lysate.
Cellular uptake experiments. HCT116, A2780 and A2780adr (2×10 5 cells), and MIHA and NCM460 (3.5×10 5 cells) cells were grown on 6-well plates at 37 °C under an atmosphere of 5% CO2 for 48 h. The culture medium was then removed, washed with PBS solution, and incubated with culture medium containing nanostructures of 1 […]
Au1a (2 µM; with 1 vol% DMSO). At a predetermined time, the culture medium was removed and washed with PBS solution for three times. The cells were then harvested and dispersed in ice-cold water. An aliquot of the cell suspension was subjected to Bio-rad protein assay with a microtitre plate reader at the absorbance at 595 nm, using bovine serum albumin as the protein standard. […] The solution mixture was heated at 65 °C with shaking overnight, and the gold content was determined by ICP-MS. […]
then removed and washed with PBS solution. The cells were then incubated with culture medium containing nanostructures of 1 (2 µM) and CellEvent Caspase-3/7 Green ReadyProbes Reagent (30 µL), or Au1a (2 µM; with 1 vol% DMSO) and CellEvent Caspase-3/7 Green ReadyProbes Reagent (30 µL) at 37 °C under an atmosphere of 5% CO2. Fluorescence images at different time intervals were recorded by the fluorescence microscope without washing the cells. […]
once every 2–3 days. The tumor volume was calculated by the equation: Volume (mm3) = l×w2/2, where l and w were the length and width of the tumor. At the end of the treatment, the nude mice were sacrificed and the tumor weight was measured. […]
At a predetermined time, the culture medium was removed and washed with PBS solution for three times. […] An aliquot of the cell suspension was subjected to Bio-rad protein assay with a microtitre plate reader at the absorbance at 595 nm, using bovine serum albumin as the protein standard. […]

HCT116 cells [3] = test: FITC-Annexin V staining and flow cytometry; type: cell-based, human; conditions: HCT116, 2 μM, 24 h
Protocol: (§1) The induction of apoptosis of HCT116 and NCM460 cells by 1 was further studied using FITC-Annexin V staining. […] The quantity of apoptotic cells stained by FITC-Annexin V after treatment with 1 or Au1a was also investigated by flow cytometry. […]
(§2) with gold(III) complexes and FITC-annexin V staining. HCT116 (1×10 5 cells) and […]
(§3) annexin-binding buffer solution. The cells were then incubated with FITC-annexin V […]
(§4) at room temperature in dark for 15 min. The solution was then removed, and the cells were washed with annexin-binding buffer solution. Fluorescence images were then […]
(§5) in ice and analyzed by flow cytometry immediately. […]
(§6) staining and flow cytometry.

NCM460 cells = test: FITC-Annexin V staining and flow cytometry; type: cell-based, human; conditions: NCM460, 2 μM, 24 h
Protocol: as §1, §2, §3, §4, §5, §6

Compound	hydrolyzed (release of gold(III) porphyrin moiety) ([1]; PBS, 37 °C, 6 h) [%]	hydrolyzed (release of gold(III) porphyrin moiety) ([1]; PBS, 37 °C, 24 h) [%]	hydrolyzed product found ([1]; 6 h) [%]	hydrolyzed product found ([1]; 24 h) [%]	incubation time at which induction of apoptosis was apparent (HCT116 cells [2]) [h]	percent of apoptotic cells (FITC-Annexin V, background corrected) (HCT116 cells [3]) [%]	percent of apoptotic cells (FITC-Annexin V, background corrected) (NCM460 cells) [%]	hydrolyzed (release of gold(III) porphyrin moiety) ([1]; PBS, 37 °C, 5 h) [%]	remained unhydrolyzed ([1]; PBS, 37 °C, 96 h)
[Au(TPP–COO–PEG5000–OCH3)]Cl [Compound 1]	31	60	60	96	15	22.5	2.4	–	–
[Au(TPP–CONH–PEG5000–OCH3)]Cl [Compound 2]	–	3	–	–	–	–	–	2	more than 89%
C1=Cc2nc1c(-c1ccccc1)c1ccc([n-]1)c(-c1ccccc1)c1nc(c(-c3ccccc3)c3ccc([n-]3)c2-c2ccccc2)C=C1.[Au+3].[Cl-] [Au1a, [Au(TPP)]Cl, reference compound]	–	–	–	–	12	39.6	39.3	–	–

Source: publication PMC5384453, “A multi-functional PEGylated gold(III) compound: potent anti-cancer properties and self-assembly into nanostructures for drug co-delivery” (Chemical Science, 2016)
